Publication PMC5464768, “ER retention is imposed by COPII protein sorting and attenuated by 4-phenylbutyrate” (eLife, 2017)

Assays:
[1] = molecular target: Sec24d (full-length, wild type) (H. sapiens) (UniProt O94855)
[2] = molecular target: Sec24d (full-length, wild type) (H. sapiens) (UniProt O94855); remark: listed apart in the source

Sequence of Sec24d (full-length, wild type) (H. sapiens) (O94855 whole entry): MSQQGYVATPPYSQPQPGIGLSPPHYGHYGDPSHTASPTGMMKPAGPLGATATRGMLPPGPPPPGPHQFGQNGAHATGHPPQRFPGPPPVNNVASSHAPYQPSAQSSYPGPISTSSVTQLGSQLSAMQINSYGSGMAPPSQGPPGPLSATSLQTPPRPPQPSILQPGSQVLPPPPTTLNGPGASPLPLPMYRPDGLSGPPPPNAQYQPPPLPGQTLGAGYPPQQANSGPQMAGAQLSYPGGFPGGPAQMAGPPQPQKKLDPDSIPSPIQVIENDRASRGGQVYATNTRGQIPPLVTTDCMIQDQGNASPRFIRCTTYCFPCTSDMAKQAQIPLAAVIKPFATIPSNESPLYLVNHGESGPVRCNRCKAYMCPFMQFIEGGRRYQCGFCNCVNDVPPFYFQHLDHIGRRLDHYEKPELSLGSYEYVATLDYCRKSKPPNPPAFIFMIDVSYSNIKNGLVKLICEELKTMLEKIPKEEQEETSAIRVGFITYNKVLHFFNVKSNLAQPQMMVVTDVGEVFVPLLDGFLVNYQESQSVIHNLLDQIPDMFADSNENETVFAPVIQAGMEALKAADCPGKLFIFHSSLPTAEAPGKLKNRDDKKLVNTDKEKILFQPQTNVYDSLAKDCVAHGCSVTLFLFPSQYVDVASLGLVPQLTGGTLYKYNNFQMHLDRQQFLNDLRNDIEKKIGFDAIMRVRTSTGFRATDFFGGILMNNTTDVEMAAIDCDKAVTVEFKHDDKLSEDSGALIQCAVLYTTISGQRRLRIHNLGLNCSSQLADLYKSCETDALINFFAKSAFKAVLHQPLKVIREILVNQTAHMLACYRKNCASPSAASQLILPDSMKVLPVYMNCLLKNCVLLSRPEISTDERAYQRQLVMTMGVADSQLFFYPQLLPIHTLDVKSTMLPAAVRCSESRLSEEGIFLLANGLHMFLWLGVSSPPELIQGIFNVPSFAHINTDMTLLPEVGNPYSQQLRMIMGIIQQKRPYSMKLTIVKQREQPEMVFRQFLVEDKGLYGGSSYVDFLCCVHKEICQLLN
Sequence of p24β1 (P49020 16-196): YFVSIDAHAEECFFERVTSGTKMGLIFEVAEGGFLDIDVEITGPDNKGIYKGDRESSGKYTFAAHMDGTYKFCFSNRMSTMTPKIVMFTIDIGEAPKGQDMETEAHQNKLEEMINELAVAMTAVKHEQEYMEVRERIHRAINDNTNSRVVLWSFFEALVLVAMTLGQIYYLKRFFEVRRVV

| Substance | reduction of the packaging rate into COPII vesicles (Sec23a/24d) budded in the presence of 10 mM 4-PBA [1] [% reduction] | packaging efficiency into COPII vesicles budded with wild-type COPII (Sec23a/24d), amount in vesicle as % of protein present in starting permeabilized cells; CHO-LDLR G544V cells [2] [%] | packaging efficiency into COPII vesicles budded with wild-type COPII (Sec23a/24d), amount in vesicle as % of protein present in starting permeabilized cells; wild-type CHO cells [2] [%] |
| --- | --- | --- | --- |
| ERGIC-53 (natural protein) | 50 | 4.5 | – |
| p24α2 (natural protein) | – | 8.7 | 10.9 |
| p24α3 (natural protein) | 50 | 6.4 | 6.4 |
| p24β1 (from UniProt P49020 16-196) (natural protein) | 50 | 10.6 | – |
| p24δ1 (natural protein) | – | 7.7 | 4.6 |
